In this assay the target is Halo-HIF-1β (endogenously HaloTag-tagged HIF-1β, knock-in clone A21) (human (endogenous in 786-O)) (UniProt P27540).

Bounds are passed on as bounds.

Chain of Halo-HIF-1β (endogenously HaloTag-tagged HIF-1β, knock-in clone A21) (human (endogenous in 786-O)) (P27540 whole entry): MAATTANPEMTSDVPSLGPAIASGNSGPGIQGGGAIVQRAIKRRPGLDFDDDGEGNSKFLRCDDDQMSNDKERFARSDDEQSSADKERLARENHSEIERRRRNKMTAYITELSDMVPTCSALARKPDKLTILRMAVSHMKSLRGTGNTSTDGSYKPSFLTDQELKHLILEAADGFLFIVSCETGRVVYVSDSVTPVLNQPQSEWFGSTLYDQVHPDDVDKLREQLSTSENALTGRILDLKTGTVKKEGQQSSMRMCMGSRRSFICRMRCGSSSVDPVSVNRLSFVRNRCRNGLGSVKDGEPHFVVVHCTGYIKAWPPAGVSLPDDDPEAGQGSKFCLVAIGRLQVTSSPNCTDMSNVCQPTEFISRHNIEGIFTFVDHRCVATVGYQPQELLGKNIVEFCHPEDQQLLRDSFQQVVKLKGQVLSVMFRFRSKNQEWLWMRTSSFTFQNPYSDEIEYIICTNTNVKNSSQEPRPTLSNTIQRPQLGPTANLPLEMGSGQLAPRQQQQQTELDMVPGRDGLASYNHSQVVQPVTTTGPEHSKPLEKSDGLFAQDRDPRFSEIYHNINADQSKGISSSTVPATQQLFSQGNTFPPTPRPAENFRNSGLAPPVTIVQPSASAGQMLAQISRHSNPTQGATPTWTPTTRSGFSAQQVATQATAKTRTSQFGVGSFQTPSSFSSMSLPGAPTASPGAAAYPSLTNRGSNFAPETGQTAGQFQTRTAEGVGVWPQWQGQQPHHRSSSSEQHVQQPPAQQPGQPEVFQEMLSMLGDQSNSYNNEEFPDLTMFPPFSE
Chain of HIF-2α N-terminally fused with 3xFLAG tag through a short peptide linker sequence (GDGAGLIN) (Q99814 whole entry, the tested form may be a part): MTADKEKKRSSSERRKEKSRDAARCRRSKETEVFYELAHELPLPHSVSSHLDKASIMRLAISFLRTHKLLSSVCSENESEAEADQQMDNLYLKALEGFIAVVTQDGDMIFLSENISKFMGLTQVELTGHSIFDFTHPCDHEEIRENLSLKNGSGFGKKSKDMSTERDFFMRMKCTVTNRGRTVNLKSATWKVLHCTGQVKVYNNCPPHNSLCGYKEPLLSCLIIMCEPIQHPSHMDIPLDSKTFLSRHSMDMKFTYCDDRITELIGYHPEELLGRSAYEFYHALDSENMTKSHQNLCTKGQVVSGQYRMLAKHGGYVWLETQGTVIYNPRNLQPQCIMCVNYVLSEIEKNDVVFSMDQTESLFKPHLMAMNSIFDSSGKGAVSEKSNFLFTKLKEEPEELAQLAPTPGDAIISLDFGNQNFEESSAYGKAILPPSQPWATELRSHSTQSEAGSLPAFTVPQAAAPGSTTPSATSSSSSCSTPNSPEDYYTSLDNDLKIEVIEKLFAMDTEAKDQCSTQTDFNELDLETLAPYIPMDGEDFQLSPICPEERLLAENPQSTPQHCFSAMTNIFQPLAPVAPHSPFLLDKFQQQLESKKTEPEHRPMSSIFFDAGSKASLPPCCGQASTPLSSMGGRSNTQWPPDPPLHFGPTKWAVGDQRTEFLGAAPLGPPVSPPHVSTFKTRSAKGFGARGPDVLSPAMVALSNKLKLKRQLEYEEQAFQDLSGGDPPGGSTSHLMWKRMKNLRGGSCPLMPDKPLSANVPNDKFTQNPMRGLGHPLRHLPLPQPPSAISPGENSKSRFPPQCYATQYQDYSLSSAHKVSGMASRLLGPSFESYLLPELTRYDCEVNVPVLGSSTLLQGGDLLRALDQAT

As for “HIF-2α N-terminally fused with 3xFLAG tag through a short peptide linker sequence (GDGAGLIN) (from UniProt Q99814 1-870) (natural protein)”, the fSPT of endogenous Halo-HIF-1β in live 786-O KIN cells stably overexpressing HIF-2α: bound fraction of Halo-HIF-1β (diffusion coefficient <0.1 μm^2/s, presumably chromatin-bound) was less than 50%.

Source of the values: article PMC9681212.
